Measured values as given in paper PMC4251497 (2014).

B1: Phenylalanine hydroxylase regulatory domain (RDPheH) 1-117 (protein)
chain: MAAVVLENGVLSRKLSDFGQETSYIEDNSNQNGAISLIFSLKEEVGALAKVLRLFEENDINLTHIESRPSRLNKDEYEFFTYLDKRTKPVLGSIIKSLRNDIGATVHELSRDKEKNT
B2: Phenylalanine hydroxylase regulatory domain (RDPheH25-117) 25-117 (protein)
chain: IEDNSNQNGAISLIFSLKEEVGALAKVLRLFEENDINLTHIESRPSRLNKDEYEFFTYLDKRTKPVLGSIIKSLRNDIGATVHELSRDKEKNT

Molecular target: the molecule itself
Test: analytical ultracentrifugation

Protein	Kd [µM]
B1	46
B2	46
